Test results published in patent publication US11135223B2, “Compositions and methods for inhibiting Dkk-1” (YALE UNIVERSITY, priority 2016, dated 2021).

Test system: CD4 T cells
Experiment: CD4 T cell activation and differentiation in vitro with Dkk-1 or Wnt3a
Assay type: cell-based, mice
Description: FIG. 5, comprising FIG. 5A through FIG. 5E, depicts results of experiments showing Dkk-1 induces TH2 cell polarization. FIG. 5A depicts lungs harvested for immunohistochemistry of CD3 (dark brown), CD41 (blue) and isotype control antibodies of lungs from Dkk-1^d/d mice and their wildtype littermate controls challenged with HDM extract allergen. Orange arrowheads in the images indicate co-localized CD3 T cells with CD41^+ platelets. FIG. 5B depicts ELISA analysis of Dkk-1 from plasma samples from Dkk-1^d/d mice (n=5) collected 24 hours after challenge with 50 μg HDM. FIG. 5C depicts ELISA analysis of splenic CD4 T cells from 6-8 week-old C57BL/6 mice were activated with anti-CD3 and anti-CD28 antibodies (Act) with or without Dkk-1 (30 ng/ml unless indicated) for 4 days. FIG. 5D depicts flow cytometry analysis of splenic CD4 T cells from 6-8 week-old C57BL/6 mice were activated with anti-CD3 and anti-CD28 antibodies (Act) with or without Dkk-1 (30 ng/ml unless indicated) for 4 days. FIG. 5E depicts ELISA analysis of naïve CD4 T cells stimulated anti-CD3 and anti-CD28 antibodies for 96 hr with or without Dkk-1.
FIG. 6, comprising FIG. 6A through FIG. 6E, depicts results of experiments showing Dkk-1 induces TH2 cytokines in various T cell differentiation conditions. FIG. 6A depicts flow cytometry and ELISA analysis of naïve CD4 T cells were stimulated under TH1 polarization conditions for 96 hours with or without Dkk-1. FIG. 6B depicts flow cytometry and ELISA analysis of naïve CD4 T cells were stimulated under TH2 polarization conditions for 96 hours with or without Dkk-1. FIG. 6C depicts flow cytometry analysis of Foxp3, IL-17A, and IL-10 expression in splenic naïve CD4 T cells isolated and differentiated into iTreg for 5 days with 100 U/ml IL-2 and 1.5 ng/ml TGF-β with or without 30 ng/ml and 3 ng/ml of Dkk-1 treated during the culture. FIG. 6D depicts Gata-3 expression levels of splenic naïve CD4 T cells from 8 week-old C57BL/6 mice treated with Dkk-1 with varying doses of Dkk-1 (50, 30, 7.5 ng/ml) or Wnt3a (20% v/v) for 96 hours in the presence of anti-CD3 and anti-CD28 antibody stimulation. FIG. 6E depicts qPCR results of Tcf7 and Lef1 mRNA harvested from splenic naïve CD4 T cells from 8 week-old C57BL/6 mice stimulated with or without Dkk-1 (30 ng/ml) for 96 hours. All results were statistically non-significant. All experiments are a representative of two to three independent experiments. Student's t-test or one way-ANOVA analysis with Bonferonni's post-hoc test were performed. Small horizontal lines and error bars indicate the mean (±s.e.m.). ***, p<0.0001, **, p<0.005, *, p<0.05.
FIG. 8, comprising FIG. 8A through FIG. 8G, depicts results of experiments showing Dkk-1 induces IL-10 in CD4 T cells via SGK-1 and p38 MAPK. FIG. 8A depicts ELISA analysis of naïve CD4 T cell differentiated into TH2 cells with or without Dkk-1 (30 ng/ml), SGK-1 inhibitor (2 μM) or p38 inhibitor (10 μM) for 96 hours. FIG. 8B depicts flow cytometry analysis of human naïve CD4 T cells (CD4^+CD25^−CD45RA^+) transduced with SGK-1 shRNA and selected with puromycin (0.5 μg/ml) for 48 hours. The selected cells were stimulated with anti-CD3 mAb (OKT3) and anti-CD28 mAb with or without Dkk-1 for 96 hr. For the last 5 hr of culture, stimulation cocktail (PMA/Ionomycin/Brefeldin A/Monensin) was added. FIG. 8C depicts intracellular staining with antibodies recognizing phospho-S6 kinase of splenic CD4^+CD25^− cells from 6 week-old C57BL/6 mice were isolated and activated with anti-CD3 and anti-CD28 mAb (2 μg/ml) with or without Dkk-1 (25 ng/ml) for indicated time points. FIG. 8D depicts intracellular staining with antibodies recognizing phospho-4E-BP1 of splenic CD4^+CD25^− cells from 6 week-old C57BL/6 mice were isolated and activated with anti-CD3 and anti-CD28 mAb (2 μg/ml) with or without Dkk-1 (25 ng/ml) for indicated time points. […]

B1: Dkk-1: Wnt antagonist Dickkopf-1 protein, expressed in CHO cells, added to cells or injected into mice (protein, UniProt O94907 32-266, looked up)
Dickkopf-related protein 1: TLNSVLNSNAIKNLPPPLGGAAGHPGSAVSAAPGILYPGGNKYQTIDNYQPYPCAEDEECGTDEYCASPTRGGDAGVQICLACRKRRKRCMRHAMCCPGNYCKNGICVSSDQNHFRGEIEETITESFGNDHSTLDGYSRRTTLSSKMYHTKGQEGSVCLRSSDCASGLCCARHFWSKICKPVLKEGQVCTKHRRKGSHGLEIFQRCYCGEGLSCRIQKDHHQASNSSRLHTCQRH
- TH1 and TH17-associated cytokines (IFN-γ, IL-17A and IL-17F) (CD4 T cell activation in vitro): not induced
- IFN-γ expression (TH1 polarization conditions, 96 hours): suppressed
- IL-4 expression (TH2 cell differentiation, dose-dependent): enhanced
- TGF-β-mediated Foxp3 expression (iTreg differentiation with IL-2 and TGF-β, 5 days): inhibiting
- Gata-3+ and c-Maf+ CD4 T cell population (in vitro, Dkk-1 30 ng/ml): increased
- amount of Dkk-1 that could induce Gata-3 expression (naïve CD4 T cells, 96 hours, similar to Wnt3a): up to 30 ng/ml
- TCF-1 or Lef expression (naïve CD4 T cells, Dkk-1 30 ng/ml, 96 hours, qPCR): did not induce
- levels of Dkk-1 that inhibited Gata-3 expression (naïve CD4 T cells, non-physiologic high levels): > 50 ng/mL
- phosphorylation of S6 kinase or 4E-BP-1 (splenic CD4+CD25- cells, Dkk-1 25 ng/ml): not altered
- IL-4, IL-10 and IL-13 (total CD4 T cell activation in vitro, Dkk-1 30 ng/ml, 4 days): induced
